Experimental data from US20110293610A1 (published 2011).

T1: APRIL, soluble form (Homo sapiens (Human), UniProt O75888 105-250)
T1 sequence: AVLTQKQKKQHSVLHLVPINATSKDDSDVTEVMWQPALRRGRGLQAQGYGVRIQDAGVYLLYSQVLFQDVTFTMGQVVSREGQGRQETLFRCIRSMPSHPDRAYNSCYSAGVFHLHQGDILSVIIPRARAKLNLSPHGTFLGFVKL


Tests used:
[1] = biological target: T2, HIS-tagged B Lymphocyte Stimulator (human, UniProt Q9Y275 71-285); assay: BIAcore, periplasmic scFv on high density HIS-BLyS surface
T2 construct: Expressed in E. coli from pQE9 and purified; also called histidine-tagged B Lymphocyte Stimulator; HIS-B Lymphocyte Stimulator; not shown: histidine tag of the pQE9 vector
Protocol: All BIAcore analysis was performed on BIAcore 2000 machines, using the BIAcore 2000 control software and evaluated using the BIAevaluation 3.0 software. A high density His-tagged B Lymphocyte Stimulator surface (>1000 RU HIS-B Lymphocyte Stimulator coupled) was prepared in flow cell 2 by amine coupling to a CM5 chip. A new CM5 chip was inserted into the BIAcore and a sensorgram started over flow cell 2 with HBS buffer at a flow rate of 5 μl/min. The NHS and EDC solution were mixed 1:1 before injecting 30 μl over the CM5 surface. Fifty μl HIS-B Lymphocyte Stimulator (at 10 μg/ml in Sodium acetate buffer, pH4) was injected and allowed to couple to the surface. Thirty μl of ethanolamine-HCl solution was then injected to block free NHS esters. Prior to using the chip, 10 μl of 4M Guanidine hydrochloride in HBS was injected over the surface to strip the surface of non-covalently bound B Lymphocyte Stimulator. A blank surface (no HIS-B Lymphocyte Stimulator) was also prepared over flow cell 1 so that non-specific binding effects can be subtracted from the HIS-B Lymphocyte Stimulator binding curves.
The 96-well plate containing periplasmic scFvs was secured inside the BIAcore. Two ml of 4M Guanidine hydrochloride in HBS was placed in a rack inside the BIAcore for regeneration of the HIS-B Lymphocyte Stimulator surface between samples. The sensorgram was run over flow cells 1 and 2 at a flow rate of […].

[2] = biological target: T3, B Lymphocyte Stimulator, soluble form (human) (human, UniProt Q9Y275 134-285, biotinylated with NHS-biotin where used as biotinylated B Lymphocyte Stimulator); assay: phage display panning on soluble BLyS
T3 construct: Coated on plastic, captured on streptavidin plates, amine-coupled to a CM5 chip or free in solution, depending on the assay; also called BLyS; immobilized B Lymphocyte Stimulator
Text: (§1) In a specific embodiment, antibodies of the present invention cross react with APRIL (SEQ ID NO:3239; GenBank Accession No. AF046888; J. Exp. Med. 188(6):1185-1190; PCT International Publication WO97/33902). […] These scFvs were isolated by panning a phage scFv library comprising VH and VL domains obtained from human bone marrow B cells (BM library). Phage from the BM phage library were first selected for binding to soluble B Lymphocyte Stimulator (amino acids 134-285 of SEQ ID NO:3228). A second round of selection for binding to the soluble form of APRIL (amino acids 105-250 of SEQ ID NO:3239) was then performed on the B Lymphocyte Stimulator binding phage selected in round one. A third round of selection for binding to the soluble form of APRIL (amino acids 105-250 of SEQ ID NO:3239) was then performed on the phage selected in round two. A final (fourth) round of selection for binding to the soluble form of B Lymphocyte Stimulator (amino acids 134-285 of SEQ ID NO:3228) was then performed on the phage selected in round three. Phage clones that bound B Lymphocyte Stimulator in the fourth round of selection were eluted with either 0.1M triethylamine (TEA) or with a TACI-Fc fusion protein (e.g., the extracellular domain of TACI (amino acids 31 to 159 of Genbank Accession No. AAC51790) fused to Fc).

APRIL, soluble form = biological target: T1, APRIL, soluble form; assay: phage display panning on soluble APRIL, rounds two and three
Text: as §1

| binding result [1] | binding result [2] | binding result (APRIL, soluble form) | Binder |
| --- | --- | --- | --- |
| binds |  |  | I082B08 (scFv) scFv: QVQLVQSGAEVKKPGGSVKVSCKASAYTFTRYYMHWVRQAPGQGLEWMGIINPSGGRTSYAQKFQGRVTMTRDTSTSTVYMELSSLRSEDTAVYYCARDLGIAGTIYFDYWGKGTLVTVSSGGGGSGGGGSGGGGSQSVLTQPPSVSAAPGQKVTISCSGSTSNIGNNYVSWYQQHPGKAPKLMIYDVSKRPSGVPDRFSGSKSGNSASLDISGLQSEDEADYYCAAWDDSLSEFLFGTGTKLTVLG |
| binds |  |  | I080A08 (scFv) scFv: QVTLKESGGDLVQPGGSLRLSCAASGLTFMSYAMTWVRQAPGKGLEWVSSISGSGDNTYYGDSVRGRFTISRDNSKNTLFLQLNSLRAEDTAFYYCAKVHSTGYAFENWGRGTLVTVSSGGGGSGGGGSGGGGSAQSVLTQPPSVSGAPGQRVTISCTGSSSNIGAGYNVHWYQQLPGTAPRLLISSNTNRPSGVPDRFSGSKSGTSASLAITGLQAEDEADYYCQSYDSSLSGFVFGTGTKVTVLG |
| binds |  |  | I082A05 (scFv) scFv: QVQLQQSGGGVVQPGRSLRLSCAASGFTYSSYAMHWVRQAPGKGLEWVAVISYDGSIKYYADSVKGRFTISRDNSKNTLYLQMNSLRAEDTAVYYCARDLDFDYWGKGTLVTVSSGGGGSGGGGSGGGGSQSVLTQPPSVSAAPGQKVTISCSGSTSNIGNNYVSWYQQHPGKAPKFMIYDVSKRPSGVSNRFSGSKSGNTASLTISGVQAEDEADYYCSSYTSASTVIFGGGTKLTVLG |
|  | binds | binds | BAB2080 (scFv) scFv: KVQLVQSGGGLVKPGGSLRLSCAASGFTFSNYGMHWVRQAPGKGLEWVALISYDGSNKYYADSVKGRFTISRDNSKNTLYLQMNSLRAEDTAVYYCAKLNSLRGGHDYWGRGTLVTVSSGGGGSGGGGSGGGGSQSVLTQPPSVSAAPGQKVTISCSGSTSNIGNNYVSWYQQHPGKAPKLMIYDVSKRPSGVPDRFSGSKSSNSASLDISGLQSEDEADYYCAAWDDSLSEFLFGTGTKLTVLG |
| binds |  |  | I083B12 (scFv) scFv: QVQLVQSGAEVKKPGASVKVSCKASEYTFYNHYMHWVRQAPGQGLEWMGFINPSGDAAWYAQKFQGRVTLTRDTSTRTVYMELSGLTSEDTAVYYCARESGAGGYYYDDYWGKGTLVTVSSGGGGSGGGGSGGGGSALSYVLTQPPSVSVAPGKTASIPCGGNNIGSKSVQWYLQKAGQAPILVVYDDSDRPSGIPERFSGSNSGNTATLTITRVEAGDEADYYCQVWDSSSDHWFFGGGTKLTVLG |
| binds |  |  | I084B02 (scFv) scFv: QVQLVQSGGGLVQPGGSLRLSCAASGFTFSSYEMNWVRQAPGKGLEWVSYISSSGSTTYYADSVKGRFTISRDNAKNSLYLQMNSLRAEDTAVYYCARDTTDYWGQGTLVTVSSGGGGSGGGGSGGGGSDIVMTQSPSTLSASVGDRVTITCRASQGISSWLAWYQQKPGRAPKVLIYKASTLESGVPSRFSGSGSGTDFTLTISSLQPEDFATYYCQQSYSTPWTFGQGTKLEIKR |
|  | binds | binds | BAB2019 (scFv) scFv: EVQLVQSGAEVKKPGASVKVSCKASGYTFTSSGISWVRQAPGQGLEWMGWINGYNGNTKYAQKFQGRVTMTTDTSTTTAYMELRSLRSDDTAVYYCARDSYDILTDYYNMIMDVWGQGTLVTVSSGGGGSGGGGSGGGGSQSVLTQPASVSGSPGQSITISCTGTSSDVGGYNYVSWYQQHPGKAPKLMIYEGSKRPSGVSNRFSGSKSGNTASLTISGLQAEDEADYYCSSYTTRSTRVFGGGTKLTVLG |

More lines, now with the values behind:

| Binder | binding result [1] | binding result [2] | binding result (APRIL, soluble form) |
| --- | --- | --- | --- |
| I080E05 (scFv) scFv: EVQLVQSGAAVKKPGASVKVSCKASGYTFTTYYIHWVRQAPGQGLEWMGIINPVNGNTIYAQKFQGRVTMTRDTSTGTVNMELSSLRSEDTAVFYCVREGGGDAYDVAPYYFDYWGQGTLVTVSSGGGGSGGGGSGGGGSAQAVLTQPSSVSGAPGQRVTISCTGSSSNIGDGYDVHWYQQLPGTAPKLLIYGNSHRPSGVPDRFSGSKSDTSASLAITGLQVEDEADYFCHSYDSSVSGWIFGGGTKLTVLG | binds |  |  |
| BAB2001 (scFv) scFv: GVQLVQSGAEVRKPGASVKVSCKPSGYPFSGNYIHWVRQAPGQGPEWMGWINPNSGDTKYSQKFQGWVTMTRDTSVSTVYMELNRLKSDDTAIYYCAREQYDTLTGSPYGMDVWGKGTLVTVSSGGGGSGGGGSGGGGSDIQMTQSPSTLSASIGDRVTITCRASQGINNYLAWYQQKPGRAPKLLIYAASSLQSGVPSRFSGSGSGTDFTLTISSLQPEDFATYYCLQDSDYPLTFGGGTKLEIKR |  | binds | binds |
| I082G01 (scFv) scFv: QMQLVQSGAEVKKPGASVKVSCKASGYTFTSYYMHWVRQAPGQGLEWMGLVHPNDGSVNYAQKFKGRVTMTRDTSTSTVYMELSSLRSDDTAVYYCARDRGSGWPNWYFDLWGQGTLVTVSSGGGGSGGGGSGGGGSDIQMTQSPSTLSASIGDRVTITCRASEGIYHWLAWYQQKPGKAPKLLIYKASSLASGAPSRFSGSGSGTDFTLTISSLQPDDFATYYCQQYSNYPLTFGGGTKLEIKH | binds |  |  |
| BAB2087 (scFv) scFv: QVQLVQSGAEVKKPGASVKVSCKASGFAFSSYDINWVRQAPGQGLEWMGWMNPKSGKTGYAQNFQGRVTMTRNTSISTAYMELSSLKSEDTAVYFCARGFTGYDILTDYYSVDYFDSWGRGTLVTVSSGGGGSGGGGSGGGGSALPVLTQPPSVSVAPGQTARITCGGSSIGRKSVHWYQQSPGQAPVLVVYDDSDRPSGIPERFSGSNSGDTATLTISRVEVGDEADYYCQVWDINSDHVVFGGGTKLTVLG |  | binds | binds |
| I084C11 (scFv) scFv: GVQLEESGAEVKKPGASVKVSCKASGYTFTGYYMHWVRQAPGQGLEWMGWINPNSGGTNYAQKFQGRVTMTRDTSISTAYMELSRLRSDDTAVYYCARGNAWGAFDIWGRSTLVTVSSGGGGSGGGGSGGGGSQSVLTQPASVSGSPGQSITISCTGTSSDVGGYNYVSWYQQHPGKAPKLMIYEGSKRPSGVSNRFSGSKSGNTASLTVSGLQAEDEADYYCSSYTTRSTRVFGGGTKLTVLG | binds |  |  |
| I084C04 (scFv) scFv: VQLVQSGAEVKKPGASVKVSCKASGYTFTSYGISWVRQAPGQGLEWMGWINPNSGGTNYAQKFQGRVTMTRDTSISTAYMELSRLRSDDTAVYYCARNLWGLDYWGKGTMVTVSSGGGGSGGGGSGGGGSSELTQDPAVSVALGQTVRITCQGDSLRSYYASWYQQKPGQAPVLVIYGKNNRPSGIPDRFSGSSSGNTASLTITGAQAEDEADYYCNSRDSSGNHVVFGGGTKLTVLG | binds |  |  |
| BAB2015 (scFv) scFv: QVQLVQSGAEVKKPGSSVKVSCKASGGTLGNYGISWVRQAPGQGLEWMGAIIPNFGTTNYVQKFQGRVTMTTDTSTSTAYMELRSLRSDDTAVYYCARGASSGWYDYYYYMDVWGKGTMVTVSSGGGGSGGGGSGGGGSDIQMTQSPSTLSASIGDRVTITCRASEGIYHWLAWYQQKPGKAPKLLIYKASSLASGAPSRFSGSGSGTDFTLTISSLQPDDFATYYCQQYSNYPLTFGGGTKLEIRR |  | binds | binds |
| I084A01 (scFv) scFv: QVQLVQSGGGLVQPGGSLRLSCAASGFTFSSYEMNWVRQAPGKGLEWVSYISSSGSTTYYADSVKGRFTISRDNAKNSLYLQMNSLRAEDTAVYYCARDTTDYWGQGTMVTVSSGGGGSGGGGSGGGGSQSVLTQPPSASGTPGQRVTISCSGSSSNIGSNTVNWYQRLPGAAPQLLIYNNDQRPSGIPDRFSGSKSGTSGSLVISGLQSEDEADYYCASWDDSLNGRVFGGGTKLTVLG | binds |  |  |
